# According to article PMC4802042 (2016):
# B1: MKP7 catalytic domain (MKP7-CD, residues 156-301) [human] / GST-JNK1 (wild type) [human] (parent complex)
# chain 1: NIGPTRILPNLYLGCQRDVLNKELMQQNGIGYVLNASNTCPKPDFIPESHFLRVPVNDSFCEKILPWLDKSVDFIEKAKASNGCVLVHCLAGISRSATIAIAYIMKRMDMSLDEAYRFVKEKRPTISPNFNFLGQLLDYEKKIKNQ
# chain 2: MSRSKRDNNFYSVEIGDSTFTVLKRYQNLKPIGSGAQGIVCAAYDAILERNVAIKKLSRPFQNQTHAKRAYRELVLMKCVNHKNIIGLLNVFTPQKSLEEFQDVYIVMELMDANLCQVIQMELDHERMSYLLYQMLCGIKHLHSAGIIHRDLKPSNIVVKSDCTLKILDFGLARTAGTSFMMTPYVVTRYYRAPEVILGMGYKENVDIWSVGCIMGEMIKGGVLFPGTDHIDQWNKVIEQLGTPCPEFMKKLQPTVRTYVENRPKYAGYSFEKLFPDVLFPADSEHNKLKASQARDLLSKMLVIDASKRISVDEALQHPYINVWYDPSEAEAPPPKIPDKQLDEREHTIEEWKELIYKEVMDLLE
# B2: MKP5 catalytic domain (MKP5-CD, residues 320-467) [human] / GST-JNK1 (wild type) [human] (parent complex)
# chain 1: AELTPILPFLFLGNEQDAQDLDTMQRLNIGYVINVTTHLPLYHYEKGLFNYKRLPATDSNKQNLRQYFEEAFEFIEEAHQCGKGLLIHCQAGVSRSATIVIAYLMKHTRMTMTDAYKFVKGKRPIISPNLNFMGQLLEFEEDLNNGVT
# chain 2: B1 chain 2
# Variants of: B1
# Assay: GST pull-down; parent: 100; read off a plot
row,percent of parent,Variant
1,~88 % of wild-type JNK1,chain 2 I197D
2,~5 % of wild-type JNK1,chain 2 D229A
3,~96 % of wild-type JNK1,chain 2 H230D
4,~73 % of wild-type JNK1,chain 2 R263A
5,~30 % of wild-type JNK1,chain 2 T255A
6,~92 % of wild-type JNK1,chain 2 Q253A
7,~8 % of wild-type JNK1,chain 2 V260D
8,~72 % of wild-type JNK1,chain 2 T228A
9,~37 % of wild-type JNK1,chain 2 I231D

# Variants of: B2
# Assay: GST pull-down; parent: 100; read off a plot
row,percent of parent,Variant
1,~98 % of wild-type JNK1,chain 2 H230D
2,~28 % of wild-type JNK1,chain 2 I231D
3,~98 % of wild-type JNK1,chain 2 R263A
4,~49 % of wild-type JNK1,chain 2 I197D
5,~67 % of wild-type JNK1,chain 2 Q253A
6,~88 % of wild-type JNK1,chain 2 T228A
7,~43 % of wild-type JNK1,chain 2 T255A
